Here are results for ten molecules from patent EP4692351A1, “ANTI-CD25 ANTIBODY AND ANTI-CD25 ANTIBODY-DRUG CONJUGATE” (priority 2023, dated 2024).

The target in test [1] is T1, human CD25 (human, UniProt P01589 22-272).
T1 construct: Expressed on transiently transfected CHO-K1 cells in the Cell-ELISA; Endogenous on human T cells, PBMC, Karpas-299 and EoL-1 in the functional assays; also called hCD25; IL-2 receptor alpha chain
T1 sequence: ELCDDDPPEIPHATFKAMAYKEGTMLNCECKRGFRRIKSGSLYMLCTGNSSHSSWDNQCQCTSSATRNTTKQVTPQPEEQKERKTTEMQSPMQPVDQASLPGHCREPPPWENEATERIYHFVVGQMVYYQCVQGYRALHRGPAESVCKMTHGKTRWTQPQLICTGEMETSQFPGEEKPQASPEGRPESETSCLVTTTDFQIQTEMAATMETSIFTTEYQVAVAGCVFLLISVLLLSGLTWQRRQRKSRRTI
The test can be described thus: cell-based or functional assay.

For test [2], the target named is T2, mouse CD25 (mouse, UniProt P01590 22-268).
T2 construct: Expressed on transiently transfected CHO-K1 cells in the Cell-ELISA; Endogenous on CTLL-2 cells and mouse pan T cells in the functional assays; also called mCD25; pCMV3-mCD25 (expression vector)
T2 sequence: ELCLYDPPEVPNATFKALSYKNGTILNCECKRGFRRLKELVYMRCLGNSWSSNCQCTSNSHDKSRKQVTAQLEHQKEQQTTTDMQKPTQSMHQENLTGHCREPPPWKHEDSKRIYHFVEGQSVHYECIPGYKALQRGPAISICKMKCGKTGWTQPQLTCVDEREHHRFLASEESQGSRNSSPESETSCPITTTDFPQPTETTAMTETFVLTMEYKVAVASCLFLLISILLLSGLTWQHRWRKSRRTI
The test can be described thus: cell-based or functional assay.

For test [3], the target named is T3, cynomolgus monkey CD25 (cynomolgus monkey, UniProt Q5MNY4 22-272 (rhesus entry)).
T3 construct: Expressed on transiently transfected CHO-K1 cells; also called cCD25; pCI-cCD25 (expression vector)
T3 chain: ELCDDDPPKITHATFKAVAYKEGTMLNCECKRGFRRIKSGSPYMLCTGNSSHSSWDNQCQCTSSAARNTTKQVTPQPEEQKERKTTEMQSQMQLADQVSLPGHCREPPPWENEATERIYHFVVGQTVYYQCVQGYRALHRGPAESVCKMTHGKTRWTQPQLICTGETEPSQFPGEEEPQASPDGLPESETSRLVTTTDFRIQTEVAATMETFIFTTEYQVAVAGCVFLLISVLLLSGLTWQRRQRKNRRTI
Briefly: Cell-ELISA on transfected CHO-K1 cells, anti-rat IgG-HRP, A450.

The target of test [4] is T1, human CD25. The test is described as above.
Test [5] has as its target T3, cynomolgus monkey CD25. Briefly: Cell-ELISA on transfected CHO-K1 cells, anti-human IgG-HRP, A450. (In an ELISA, binding on a coated surface is turned into a signal by an enzyme label.)
The target of test [6] is T1, human CD25. The test is described as above.
Test [7] concerns the target T4, CD25 antigen used as analyte in the Biacore measurement (Homo sapiens (Human), UniProt P01589 22-213, limits assumed).
T4 construct: also called the antigen
T4 sequence: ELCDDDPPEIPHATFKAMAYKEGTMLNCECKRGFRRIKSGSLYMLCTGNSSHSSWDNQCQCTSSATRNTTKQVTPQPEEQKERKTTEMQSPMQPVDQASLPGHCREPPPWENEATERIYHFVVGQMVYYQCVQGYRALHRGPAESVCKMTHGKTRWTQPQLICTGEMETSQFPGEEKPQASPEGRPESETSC
The test can be described thus: SPR, Biacore T200, antibody captured on anti-human IgG (Fc) on CM5, antigen as analyte, 1:1 binding model. A general note: Surface plasmon resonance follows binding to a sensor surface in real time, without labels.

Test [8] concerns the target T3, cynomolgus monkey CD25. Briefly: Cell-ELISA on transfected CHO-K1 cells, anti-human IgG-HRP, A450; 20 to 0.001 µg/mL.
For test [9], the target named is T2, mouse CD25. The test can be described thus: Cell-ELISA on transfected CHO-K1 cells, anti-human IgG-HRP, A450.
Test [10] deals with T2, mouse CD25. Briefly: Cell-ELISA on transfected CHO-K1 cells, anti-rat IgG-HRP, A450.
In test [11] the target is T3, cynomolgus monkey CD25. Briefly: Cell-ELISA on transfected CHO-K1 cells, anti-rat IgG-HRP, A450; 0.02 to 10 µg/mL.
Test [12] deals with T3, cynomolgus monkey CD25. Briefly: Cell-ELISA on transfected CHO-K1 cells, anti-human IgG-HRP, A450; 80 to 0.001 µg/mL.

Substitutions are numbered along the chain they refer to.

As to basiliximab (antibody), in [1], the amount of pSTAT5 in human PBMC with IL-2 (AlphaLISA), % of hIgG1 control group came to 0.01%; the amount of pSTAT5 in human PBMC with IL-2 (AlphaLISA), % of human IgG1 control group amounted to 1.2%; the amount of pSTAT5 in human PBMC with IL-2 (AlphaLISA), % of rat IgG2a control group; antibody 20 µg/mL is 1%.

Consider PC61_hIgG1LALA (antibody), for which, in test [2], the amount of pSTAT5 in mouse CTLL-2 cells with IL-2 (AlphaLISA), % of rat IgG2a control group; antibody solution 20 µg/mL is 48%.

For 7G7B6 (antibody), the amount of pSTAT5 in human PBMC with IL-2 (AlphaLISA), % of rat IgG2a control group; antibody 20 µg/mL in test [1] worked out at 103%.

In test [2], “Purified NA/LE Rat Anti-Mouse CD25 (PC61 antibody)” returned a cell survival rate of mouse pan T cells with Fab-ZAP rat (saporin), % of control antibody; 60 ng/mL of 59%; a cell survival rate of mouse pan T cells with Fab-ZAP rat (saporin), % of control antibody; 300 ng/mL of 39%; a cell survival rate of mouse pan T cells with Fab-ZAP rat (saporin), % of control antibody; 1500 ng/mL of 31%; a cell survival rate of mouse pan T cells with Fab-ZAP rat (saporin), % of control antibody; 7500 ng/mL of 29%.

B1: MAb2 antibody (antibody, V domains shown)
VH: QVKLLQSGAALEKPGASVKMSCKASGYTFTDYWVIWVKQSHGKSLEWIGEIYPNSGATNFNAKFKGKATLTVDKSTSTAYMELSRLTSEDSAIYYCTTYDFDYWGQGVMVTVSS
VL: DVVLTQTPPTLSATIGQSVSISCRSSQSLSHTNGNTYLYWLLQRPGQPPQLLIYFVSRLESGVPNRFSGSGSGTDFTLKISGVEAEDLGLYYCVQSTHVPNTFGAGTKLELKR
notes: Rat monoclonal anti-mouse CD25 antibody from a hybridoma
With B1, the binding result in test [3] and in [4] was “no binding (tested: up to 10 µg/mL)” throughout.

B2: cMAb2_hIgG1LALA antibody (antibody, V domains shown)
VH: B1 VH
VL: B1 VL
notes: 21-239 is used here; also called human IgG1LALA chimeric MAb2
With B2, the binding result in test [5] and in test [6] was “no binding (tested: 80 to 0.001 µg/mL)” throughout.

B3: hMAb1A antibody (antibody, human IgG1, kappa, V domains shown)
VH: EVQLVESGGGLVQPGGSLRLSCAASGFTFNNYYMVWVRQAPGKGLEWVAYISTGGGTTYYRESVKGRFTISRDNSKSTLYLQMNSLRAEDTAVYYCTTSVYFSDGSSHYDGEWFAYWGQGTLVTVSS
VL: DIVMTQSPDSLAVSLGERATINCKASESVSTRMHWYQQKPGQPPKLLIYKASNLASGVPARFSGSGSGTDFTLTISSLQAEDVAVYYCQQSWNGWAFGQGTKVEIKR
notes: Humanized MAb1, human IgG1 / kappa; also called humanized antibody hMAb1A; hMAb1 (in places)
In test [7], B3 returned an equilibrium dissociation constant (Kd) of 2.9 nM. Moreover, the binding result in [8] is “binds”; in [9], “no binding (tested: 20 to 0.001 µg/mL)”.

B4: MAb1 antibody (antibody, V domains shown)
VH: B3 VH with G16R, R19K, G42T, S75A, N84D, A88S, V93T
VL: DTVLTQSPALAVSPGERVTISCKASESVSTRMHWYQQKPGQQPKLLIYKASNLASGVPARFSGSGSGTDFTLTIDPVEADDTATYFCQQSWNGWAFGGGTKLELKR
notes: Rat monoclonal antibody from a hybridoma
Regarding B4, the binding result in test [10] is “no binding (tested: up to 10 µg/mL)”; in test [11] it was “binds”.

B5: hMAb1B antibody (antibody, human IgG1, kappa, V domains shown)
VH: B3 VH with R61A, E62D
VL: EIVLTQSPGTLSLSPGERATLSCKASESVSTRMHWYQQKPGQAPRLLIYKASNLASGVPARFSGSGSGTDFTLTISRLEPEDFAVYFCQQSWNGWAFGQGTKVEIKR
notes: Humanized MAb1, human IgG1 / kappa; also called humanized antibody hMAb1B
In turn, B5 showed a Kd in test [7] of 5.7 nM. Further, the binding result in [8] is “binds”.

B6: cMAb1_hIgG1LALA antibody (antibody, V domains shown)
VH: B3 VH with G16R, R19K, G42T, S75A, N84D, A88S, V93T
VL: B4 VL
notes: Chimeric: rat MAb1 variable regions, human IgG1 LALA heavy constant region, human kappa constant region; also called human IgG1LALA chimeric MAb1
With B6, the results for the binding result in test [9] and in test [12] were “no binding (tested: 80 to 0.001 µg/mL)” and “binds”, respectively.

As a reminder, the Kd is the free concentration of one partner at which half of the binding sites on the other are occupied at equilibrium, for simple one-to-one binding.
